In US7179646B2, “Gene expression using T cell factor responsive element” (Innovata PLC, priority 2000, dated 2007):

B1: 5merTcf-SV40: Artificial promoter of 5 active Tcf sites upstream of the basal SV40 promoter; renamed CTP1 (nucleic acid)
antisense: TTGAGATGCAGATCGCAGATCTGATAAAGGTGCATTTAGAGATCAAAGGTAGGACTCTTGATCAAAGGACTGAATTCCTTGATCAAAGGTGCATTTAGAGATCAAAGGTAGGACTCTTTGATCAAAGGGACTAGTAAGCTTGCTAGCACGCGTAAGAGCTCGGTACC
B2: TcfC-E1BTATA: Luciferase reporter with TcfC arrangement of 5 Tcf sites and E1BTATA box (nucleic acid)
antisense: TACCAACAGTACCGGAATGCCAAGCTAGCTTTTTAGCTTCCTTAGCTCCTGAAAATCTCGCCAAGCTGATGAATTCGAGCTGGCGCATTATATACCCTCTGATAAAGGTGCATTTAGAGATCAAAGGTATGATCAAAGGACTTGATCAAAGGTGAGATCAAAGGTATTGATCAAAGGACTAGAGCTTACTTAGATCGCAGATCTCGAGCCCGGGCTAGCACGCGTAAGAGCTCGGTACCTATCG

Tests used:
[1] = test system: freshly excised colorectal cancer tissue and attached liver tissue; assay: Ex vivo transduction of freshly excised colorectal tumour samples, X-gal staining; design: species or system human
Protocol: Freshly excised tumour tissue was extensively washed (at least 10 minutes duration) under aseptic conditions with 20 ml of Earl's MEM containing 10% FCS, 150 μg/ml penicillin, 250 μg/ml streptomycin, 10 μg/ml tetracycline, 100 μg/ml amikacin, 150 µg/ml chloramphenicol and 100 μg/ml gentamycin and stored at 4° C. overnight in medium containing 10% FCS. After removal of fat and grossly and suspected necrotic tissue, 2–3 mm^3 samples were prepared and placed individually into wells of a 96-well plate. Samples (in quadruplicate) were incubated in 150 μl of serum-free medium containing, 1.0×10^10 virus particles or in medium alone for 4 h in a CO2 incubator. The medium was then replaced with EMEM containing 10% FCS and the samples incubated for a further 44 h to allow gene expression to proceed. β-galactosidase expression was visualised after fixation of the tumour samples in 2% paraformaldehyde/PBS for 2 h at 4° C. and washing with PBS by overnight incubation in X-gal staining solution at 37° C.

[2] = test system: primary human hepatocytes, dermal fibroblasts and endothelial cells; assay: Beta-galactosidase expression in infected cultured primary human cells; assay type: cell-based; conditions: 48 h after infection
Protocol: Primary human dermal fibroblasts were isolated from punch biopsy samples from healthy volunteers and maintained as above. HUVEC cells were obtained from Promocell (Heidelberg, Germany) and maintained in Endothelial Growth Medium plus Supplement Mix (Promocell). Primary hepatocytes were maintained in Williams medium with added antibiotics, glutamine, insulin and hydrocortisone.
After washing cells with PBS, cells were fixed in 0.05% glutaraldehyde in PBS for 10 min at RT. Following further washing in PBS, cells were incubated cells the following solution and incubated at 37° C. X-gal solution: 400 μl 500 mM K4Fe(CN)6, 400 μl 500 mM K3Fe(CN)6, 100 μl 2 mM MgCl2, 250 μl 40 mg/ml X-Gal in DMF and 8.85 ml PBS.
(§1) Expression of β-galactosidase was measured for quantitative graphical presentation by means of the Galacto-Light system (Tropix Inc, Applied Biosystems, Foster City, Calif., U.S.A.)

HeLa cells = assay: Transient transfection luciferase reporter assay in HeLa; assay type: cell-based, human
Protocol: (§2) HepG2, SW480 and HeLa were seeded the day before transfection at densities of 2.5×10^5, 1.5×10^5 and 6.0×10^4 cells per 6-well respectively. The next day, a mixture of CL22 peptide ([…] (SEQ ID NO:15) (described in International Patent Application WO 98/35984)) and plasmid DNA (2:1 ratio, μg:μg) was prepared in a final volume of 100 μl in HBS (10 mM Hepes pH 7.4, 150 mM NaCl; Sigma) and incubated at RT for 30–45 min before addition of 0.9 ml of “RAC” solution (0.1% human albumin (BPL, UK), 120 μM chloroquine (Sigma) in RPMI medium (Sigma). The transfection solution was then added to cells after washing them once with PBS and incubated with the cells for 4–5 hours before replacement with 2 ml of fresh complete medium. After two days, cells were washed once with PBS and then incubated for 10 min at RT in 200 μl lysis buffer (10 mM sodium phosphate pH 7.8, 8 mM MgCl2, 1 mM EDTA pH 8.0, 1% Triton X-100 and 15% glycerol). After centrifugation, an aliquot of the supernatant was assayed for luciferase activity with luciferase assay buffer (0.1 mM luciferin, 0.44 mM ATP in lysis buffer) using a luminometer (Lumat LB 9501, Berthold, Germany). Activity was normalised using the protein content of each sample (BCA, Pierce).

HepG2 cells = assay: Transient transfection luciferase reporter assay in HepG2; assay type: cell-based, human
Protocol: as §2

SW480 cells = assay: Transient transfection luciferase reporter assay in SW480; assay type: cell-based, human
Protocol: as §2

293 and PerC6 cells = assay: LacZ expression in adenovirus helper cell lines; assay type: cell-based, human
Protocol: as §1

| Molecule | colorectal metastases permissive for high-level expression ([1]; 5 metastases examined) | primaries weakly or non-permissive for promoter activity ([1]; of 10 primaries) | beta-galactosidase expression [2] | luciferase reporter activity in HeLa (HeLa cells; Example 6) | luciferase activity compared to SV40 promoter alone (HeLa cells; beta-catenin not deregulated) | activity relative to CMV enhancer/promoter (HepG2 cells) | induction ratio (HepG2 cells; relative to SV40 promoter set as 1) | activity relative to CMV enhancer/promoter (SW480 cells; SW480) | luciferase reporter activity in SW480 (SW480 cells; SW480, Example 6) | induction ratio (SW480 cells; SW480, relative to SV40 promoter set as 1) | inducibility in SW480 compared to HeLa (SW480 cells; SW480 vs HeLa) | LacZ expression compared to CMV promoter (293 and PerC6 cells; 293 and PerC6, MOI 100, 30 h post-infection) | fold more active in PerC6 than in 293 cells (293 and PerC6 cells; PerC6 vs 293) | level of reporter gene expression among Tcf-E1BTATA arrangements (SW480 cells; SW480, E1BTATA combinations) |
| --- | --- | --- | --- | --- | --- | --- | --- | --- | --- | --- | --- | --- | --- | --- |
| B1 | all 5 colorectal metastases examined were permissive | 3 | very low levels of beta-galactosidase expression | shows a background activity in HeLa cells | not more active than the SV40 promoter alone | even more active than CMV | 18 | about 80% | highly active in SW480, here comparable to CMV | 44.2 | 30–60 fold | significantly lower than that driven by the CMV promoter | approximately 3 fold | – |
| B2 | – | – | – | – | – | – | – | – | – | – | – | – | – | highest level of reporter gene expression |
